Like-named read-outs stand apart in the source and are kept apart here.
Legend:
[1] = target: SOSIP; assay: flow cytometry of murine B cells edited with the VRC26.25 HCDR3, APC-labeled SOSIP trimer against anti-IgM; activation High dose LPS
[2] = target: SOSIP; assay: flow cytometry of murine B cells edited with the VRC26.25 HCDR3, APC-labeled SOSIP trimer against anti-IgM; activation Anti-CD180
[3] = target: ConM-v7ds (GnTI-); assay: flow cytometry, VRC26.25 HCDR3-edited primary murine B cells, labeled SOSIP against surface IgM
[4] = target: ConM-8.1ds (GnTI-); assay: as above
[5] = target: BG505ConM-v8.1ds (GnTI-); assay: as above
[6] = target: CRF250ConM-v7ds (GnTI-); assay: as above
[7] = target: ConM-v7ds; assay: as above
[8] = target: ConM SOSIP protein (v8.1ds) modified with the CRF250 V1V2 region (HIV-1); assay: as above
[9] = target: BG505ConM-v7ds (GnTI-); assay: as above
[10] = target: ConM-v8.1(GnTI-); assay: as above
[11] = target: BG505ConM-v8.1 (GnTI-); assay: as above
[12] = target: CRFConM-v8.1ds (GnTI-); assay: as above
[13] = target: CRF250ConM-v7ds; assay: as above
[14] = target: ConM-v7; assay: as above
[15] = target: ConM-v8.1ds; assay: as above
[16] = target: CRF250ConM-v8.1 (GnTI-); assay: as above
[17] = target: ConM-v7 (GnTI-); assay: as above
[18] = target: BG505ConM-v8.1; assay: as above
[19] = target: BG505ConM-v7ds; assay: as above
[20] = target: ConM SOSIP protein (v8.1ds) modified with the BG505 V1V2 region (HIV-1); assay: as above
[21] = target: ConM SOSIP protein (v8.1ds) modified with the CRF250 V1V2 region (HIV-1); assay: as above; remark: listed apart in the source
[22] = target: ConM-v8.1ds; assay: as above; remark: listed apart in the source
[23] = target: 16055-ConM-v8.1ds SOSIP trimer (HIV-1); assay: as above
[24] = target: ConM SOSIP protein (v8.1ds) modified with the BG505 V1V2 region (HIV-1); assay: as above; remark: listed apart in the source
[25] = target: 16055-ConM-v8.1ds SOSIP trimer (HIV-1); assay: flow cytometry, primary murine B cells edited in the HCDR3, labeled 16055-ConM-v8.1ds SOSIP against surface IgM
[26] = target: SOSIP; assay: flow cytometry of murine B cells edited with the VRC26.25 HCDR3, APC-labeled SOSIP trimer against anti-IgM; activation Low dose LPS + IL4

Q: Which % of cells above the SOSIP gate line [1] does the source give for “B-cell receptors of primary murine B cells edited to express the VRC26.25 HCDR3 (antibody)” here?
A: Its % of cells above the SOSIP gate line is 3.41%.

Q: And the % of cells above the SOSIP gate line [2]?
A: The % of cells above the SOSIP gate line was 4.47%.

Q: What about the % of cells in the SOSIP gate [3] of the same substance?
A: Its % of cells in the SOSIP gate is 4.48%.

Q: And the % of cells in the SOSIP gate [4]?
A: The % of cells in the SOSIP gate was 7.68%.

Q: And the % of cells in the SOSIP gate [5]?
A: Its % of cells in the SOSIP gate is 6.39%.

Q: What about the % of cells in the SOSIP gate [6] of the same substance?
A: The % of cells in the SOSIP gate was 6.33%.

Q: And the % of cells in the SOSIP gate [7]?
A: The % of cells in the SOSIP gate was 5.51%.

Q: What about the % of cells in the SOSIP gate [8] of the same substance?
A: Its % of cells in the SOSIP gate is 6.6%.

Q: And the % of cells in the SOSIP gate [9]?
A: Its % of cells in the SOSIP gate is 4.61%.

Q: And the % of cells in the SOSIP gate [10]?
A: The % of cells in the SOSIP gate was 6.89%.

Q: And the % of cells in the SOSIP gate [11]?
A: Its % of cells in the SOSIP gate is 7.41%.

Q: And the % of cells in the SOSIP gate [12]?
A: Its % of cells in the SOSIP gate is 7.8%.

Q: What about the % of cells in the SOSIP gate [13] of the same substance?
A: Its % of cells in the SOSIP gate is 5.46%.

Q: And the % of cells in the SOSIP gate [14]?
A: The % of cells in the SOSIP gate was 5.57%.

Q: And the % of cells in the SOSIP gate [15]?
A: Its % of cells in the SOSIP gate is 6.58%.

Q: And the % of cells in the SOSIP gate [16]?
A: The % of cells in the SOSIP gate was 5.16%.

Q: And the % of cells in the SOSIP gate [17]?
A: Its % of cells in the SOSIP gate is 7.31%.

Q: And the % of cells in the SOSIP gate [18]?
A: Its % of cells in the SOSIP gate is 5.19%.

Q: And the % of cells in the SOSIP gate [19]?
A: The % of cells in the SOSIP gate was 5.08%.

Q: What about the % of cells in the SOSIP gate [20] of the same substance?
A: The % of cells in the SOSIP gate was 5.87%.

Q: And the % of cells in the SOSIP gate [21]?
A: The % of cells in the SOSIP gate was 3.22%.

Q: And the % of cells in the SOSIP gate [22]?
A: Its % of cells in the SOSIP gate is 3.62%.

Q: What about the % of cells in the SOSIP gate [23] of the same substance?
A: Its % of cells in the SOSIP gate is 3.83%.

Q: And the % of cells in the SOSIP gate [24]?
A: Its % of cells in the SOSIP gate is 3.59%.

Q: What about the % of cells in the SOSIP gate [25] of the same substance?
A: The % of cells in the SOSIP gate was 4.54%.

Q: And the % of cells above the SOSIP gate line [26]?
A: The % of cells above the SOSIP gate line was 4.62%.

Source: US20260117259A1
